This assay addresses GAr fused to the N-terminus of p53 (GAr-p53), nascent peptide on polysomes (Epstein-Barr virus | not stated). The assay is described as follows: proximity ligation; PLEA (PLA ELISA): polysomes of cycloheximide-treated H1299 lysates captured on 96-well plates with goat anti-RPL5, increasing amounts of polysomes; in vitro PLA with anti-p53 (rabbit) and anti-NACA (mouse). Background: ELISA stands for enzyme-linked immunosorbent assay.

The substance “nascent polypeptide-associated complex subunit alpha (NACA), endogenous in H1299 cells (from UniProt Q13765 1-215) (natural protein)” had a fold interaction (PLEA signal) against p53 of 3 fold.

Source of the values: article PMC9508830.
